Literature values, collected in paper PMC7768908 (Biochemistry, 2020).

Columns and labels:
MT1-MMP = conditions: by binding the cytoplasmic tail of MT1-MMP; ref [13]
[1] = test system: cytoplasmic tail of MT1-MMP; conditions: ref [13]

B1: ADI1 gene product: ADI1 gene encoding HsARD; human acireductone dioxygenase (protein, UniProt Q9BV57 1-179, looked up)
Acireductone dioxygenase: MVQAWYMDDAPGDPRQPHRPDPGRPVGLEQLRRLGVLYWKLDADKYENDPELEKIRRERNYSWMDIITICKDKLPNYEEKIKMFYEEHLHLDDEIRYILDGSGYFDVRDKEDQWIRIFMEKGDMVTLPAGIYHRFTVDEKNYTKAMRLFVGEPVWTAYNRPADHFEARGQYVKFLAQTA
MT1-MMP
  effect on MT1-MMP protease activity: suppressing protease activity
[1]
  binding to the cytoplasmic tail of MT1-MMP: binds to the cytoplasmic tail of MT1-MMP
